Our source for the dG and Kd values is PMC2408616, “Modular Organization and Combinatorial Energetics of Proline–Tyrosine Nuclear Localization Signals” (PLoS Biology, 2008).

B1: MBP–Hrp1p NLS [S. cerevisiae] / Kap104p [yeast (S. cerevisiae)] (parent complex)
chain 1: RDRNDRDRDYNHRSGGNHRRNGRGGRGGYNRRNNGYHPYNR
chain 2: MASTWKPAEDYVLQLATLLQNCMSPNPEIRNNAMEAMENFQLQPEFLNYLCYILIEGESDDVLKQHYSLQDLQNNRATAGMLLKNSMLGGNNLIKSNSHDLGYVKSNIIHGLYNSNNNLVSNVTGIVITTLFSTYYRQHRDDPTGLQMLYQLLELTSNGNEPSIKALSKIMEDSAQFFQLEWSGNTKPMEALLDSFFRFISNPNFSPVIRSESVKCINTVIPLQTQSFIVRLDKFLEIIFQLAQNDENDLVRAQICISFSFLLEFRPDKLVSHLDGIVQFMLHLITTVNEEKVAIEACEFLHAFATSPNIPEHILQPYVKDIVPILLSKMVYNEESIVLLEASNDDDAFLEDKDEDIKPIAPRIVKKKEAGNGEDADDNEDDDDDDDDEDGDVDTQWNLRKCSAATLDVMTNILPHQVMDIAFPFLREHLGSDRWFIREATILALGAMAEGGMKYFNDGLPALIPFLVEQLNDKWAPVRKMTCWTLSRFSPWILQDHTEFLIPVLEPIINTLMDKKKDVQEAAISSVAVFIENADSELVETLFYSQLLTSFDKCLKYYKKKNLIILYDAIGRFAEKCALDETAMQIILPPLIEKWALLSDSDKELWPLLECLSCVASSLGERFMPMAPEVYNRAFRILCHCVELEAKSHQDPTIVVPEKDFIITSLDLIDGLVQGLGAHSQDLLFPQGTKDLTILKIMLECLQDPVHEVRQSCFALLGDIVYFFNSELVIGNLEDFLKLIGTEIMHNDDSDGTPAVINAIWALGLISERIDLNTYIIDMSRIILDLFTTNTQIVDSSVMENLSVTIGKMGLTHPEVFSSGAFANDSNWNKWCLSVNALDDVEEKSSAYMGFLKIINLTSTEVTMSNDTIHKIVTGLSSNVEANVFAQEIYTFLMNHSAQISAINFTPDEISFLQQFTS
B2: MBP–Nab2p NLS [S. cerevisiae] / Kap104p [yeast (S. cerevisiae)] (parent complex)
chain 1: DNSQRFTQRGGGAVGKNRRGGRGGNRGGRNNNSTRFNPLAKALGMAGESNM
chain 2: B1 chain 2

One assay covers variants of B1. Put plainly: ITC; parent: -10.1.
On to chain 1 Y36L, for which the dG is -41.8 kJ/mol. The same measure, in the same setting: the figure for chain 1 R32A is -43.9 kJ/mol; for chain 1 R19K, chain 1 R20K, chain 1 R23K, chain 1 R26K it is -41.8 kJ/mol. The same measure, in the same setting: the figure for chain 1 R31A is -41.8 kJ/mol; for chain 1 R19A, chain 1 Y36A it is -40.6 kJ/mol.

Variants of B2 are the subject of another assay. Briefly: ITC; parent: 37 nM.
The term Kd denotes the equilibrium constant for the complex coming apart. Consider chain 1 R35H, for which the Kd stood at 0.063 µM.

chain 1 F36A: the Kd amounted to 0.296 µM. Regarding chain 1 F36L, the Kd was 0.066 µM.

As to chain 1 R18K, chain 1 R19K, chain 1 R22K, chain 1 R26K, chain 1 R29K, the Kd came to 0.021 µM.
